# Results: ChEMBL document CHEMBL4680222, “Sensitive fluorogenic substrates for sirtuin deacylase inhibitor discovery” (Eur J Med Chem, 2020)
# Tests used:
# [1] = compound: CCCCCCCCCC(=O)NCCCC[C@H](NC(=O)[C@H](CC(=O)O)NC(=O)[C@@H](NC(=O)[C@H](CCC(=O)O)NC(C)=O)[C@@H](C)O)C(=O)Nc1ccc2c(C)cc(=O)oc2c1; assay: (§1) Substrate activity at human N-terminal His-tagged SIRT2 (56 to 356 residues) expressed in Escherichia coli assessed as ratio of Kcat to Km measured after 1 hr in presence of NAD+ and trypsin by Michaelis-Menten kinetic model based fluorescence assay
# [2] = compound: CCCCCCCCCC(=O)NCCCC[C@H](NC(=O)[C@@H](NC(=O)[C@H](CO)NC(=O)[C@H](CO)NC(C)=O)[C@@H](C)CC)C(=O)Nc1ccc2c(C)cc(=O)oc2c1; assay: as §1
# [3] = compound: CC(=O)NCCCC[C@H](NC(=O)[C@H](CC(C)C)NC(=O)[C@H](CCCCN)NC(=O)[C@H](Cc1ccc(O)cc1)NC(C)=O)C(=O)Nc1ccc2c(C)cc(=O)oc2c1; assay: as §1
# [4] = compound: CCCCCCCCCCCCCC(=O)NCCCC[C@H](NC(=O)OCc1ccccc1)C(=O)Nc1ccc2c(C)cc(=O)oc2c1; assay: as §1
# [5] = compound: CC[C@H](C)[C@H](NC(=O)[C@H](CC(C)C)NC(=O)[C@H](CCCNC(=N)N)NC(C)=O)C(=O)N[C@@H](CCCCNC(C)=O)C(=O)Nc1ccc2c(C)cc(=O)oc2c1; assay: as §1
# [6] = compound: CC(=O)NCCCC[C@H](NC(=O)OCc1ccccc1)C(=O)Nc1ccc2c(C)cc(=O)oc2c1; assay: as §1
# [7] = compound: CCCCCCCCCC(=O)NCCCC[C@H](NC(=O)[C@H](CC(=O)O)NC(=O)[C@@H](NC(=O)[C@H](CCC(=O)O)NC(C)=O)[C@@H](C)O)C(=O)Nc1ccc2c(C)cc(=O)oc2c1; assay: (§2) Substrate activity at human N-terminal His-tagged SIRT2 (56 to 356 residues) expressed in Escherichia coli assessed as Kcat measured after 1 hr in presence of NAD+ and trypsin by Michaelis-Menten kinetic model based fluorescence assay
# [8] = compound: CCCCCCCCCC(=O)NCCCC[C@H](NC(=O)[C@@H](NC(=O)[C@H](CO)NC(=O)[C@H](CO)NC(C)=O)[C@@H](C)CC)C(=O)Nc1ccc2c(C)cc(=O)oc2c1; assay: as §2
# [9] = compound: CC(=O)NCCCC[C@H](NC(=O)[C@H](CC(C)C)NC(=O)[C@H](CCCCN)NC(=O)[C@H](Cc1ccc(O)cc1)NC(C)=O)C(=O)Nc1ccc2c(C)cc(=O)oc2c1; assay: as §2
# [10] = compound: CCCCCCCCCCCCCC(=O)NCCCC[C@H](NC(=O)OCc1ccccc1)C(=O)Nc1ccc2c(C)cc(=O)oc2c1; assay: as §2
# [11] = compound: CC[C@H](C)[C@H](NC(=O)[C@H](CC(C)C)NC(=O)[C@H](CCCNC(=N)N)NC(C)=O)C(=O)N[C@@H](CCCCNC(C)=O)C(=O)Nc1ccc2c(C)cc(=O)oc2c1; assay: as §2
# [12] = compound: CC(=O)NCCCC[C@H](NC(=O)OCc1ccccc1)C(=O)Nc1ccc2c(C)cc(=O)oc2c1; assay: as §2
# [13] = compound: CCCCCCCCCC(=O)NCCCC[C@H](NC(=O)[C@H](CC(=O)O)NC(=O)[C@@H](NC(=O)[C@H](CCC(=O)O)NC(C)=O)[C@@H](C)O)C(=O)Nc1ccc2c(C)cc(=O)oc2c1; assay: (§3) Substrate activity at human N-terminal His-tagged SIRT2 (56 to 356 residues) expressed in Escherichia coli assessed as Km measured after 1 hr in presence of NAD+ and trypsin by Michaelis-Menten kinetic model based fluorescence assay
# [14] = compound: CCCCCCCCCC(=O)NCCCC[C@H](NC(=O)[C@@H](NC(=O)[C@H](CO)NC(=O)[C@H](CO)NC(C)=O)[C@@H](C)CC)C(=O)Nc1ccc2c(C)cc(=O)oc2c1; assay: as §3
# [15] = compound: CC(=O)NCCCC[C@H](NC(=O)[C@H](CC(C)C)NC(=O)[C@H](CCCCN)NC(=O)[C@H](Cc1ccc(O)cc1)NC(C)=O)C(=O)Nc1ccc2c(C)cc(=O)oc2c1; assay: as §3
# [16] = compound: CCCCCCCCCCCCCC(=O)NCCCC[C@H](NC(=O)OCc1ccccc1)C(=O)Nc1ccc2c(C)cc(=O)oc2c1; assay: as §3
# [17] = compound: CC[C@H](C)[C@H](NC(=O)[C@H](CC(C)C)NC(=O)[C@H](CCCNC(=N)N)NC(C)=O)C(=O)N[C@@H](CCCCNC(C)=O)C(=O)Nc1ccc2c(C)cc(=O)oc2c1; assay: as §3
# [18] = compound: CC(=O)NCCCC[C@H](NC(=O)OCc1ccccc1)C(=O)Nc1ccc2c(C)cc(=O)oc2c1; assay: as §3
# [19] = compound: CCCCCCCCCC(=O)NCCCC[C@H](NC(=O)[C@H](CC(=O)O)NC(=O)[C@@H](NC(=O)[C@H](CCC(=O)O)NC(C)=O)[C@@H](C)O)C(=O)Nc1ccc2c(C)cc(=O)oc2c1; assay: (§4) Substrate activity at human N-terminal His-tagged SIRT2 (56 to 356 residues) expressed in Escherichia coli assessed as Vmax measured after 1 hr in presence of NAD+ and trypsin by Michaelis-Menten kinetic model based fluorescence assay
# [20] = compound: CCCCCCCCCC(=O)NCCCC[C@H](NC(=O)[C@@H](NC(=O)[C@H](CO)NC(=O)[C@H](CO)NC(C)=O)[C@@H](C)CC)C(=O)Nc1ccc2c(C)cc(=O)oc2c1; assay: as §4
# [21] = compound: CC(=O)NCCCC[C@H](NC(=O)[C@H](CC(C)C)NC(=O)[C@H](CCCCN)NC(=O)[C@H](Cc1ccc(O)cc1)NC(C)=O)C(=O)Nc1ccc2c(C)cc(=O)oc2c1; assay: as §4
# [22] = compound: CCCCCCCCCCCCCC(=O)NCCCC[C@H](NC(=O)OCc1ccccc1)C(=O)Nc1ccc2c(C)cc(=O)oc2c1; assay: as §4
# [23] = compound: CC[C@H](C)[C@H](NC(=O)[C@H](CC(C)C)NC(=O)[C@H](CCCNC(=N)N)NC(C)=O)C(=O)N[C@@H](CCCCNC(C)=O)C(=O)Nc1ccc2c(C)cc(=O)oc2c1; assay: as §4
# [24] = compound: CC(=O)NCCCC[C@H](NC(=O)OCc1ccccc1)C(=O)Nc1ccc2c(C)cc(=O)oc2c1; assay: as §4
protein,measurement,setting,value
"NAD-dependent protein deacetylase sirtuin-2 (Homo sapiens), Q8IXJ6 (protein) MAEPDPSHPLETQAGKVQEAQDSDSDSEGGAAGGEADMDFLRNLFSQTLSLGSQKERLLDELTLEGVARYMQSERCRRVICLVGAGISTSAGIPDFRSPSTGLYDNLEKYHLPYPEAIFEISYFKKHPEPFFALAKELYPGQFKPTICHYFMRLLKDKGLLLRCYTQNIDTLERIAGLEQEDLVEAHGTFYTSHCVSASCRHEYPLSWMKEKIFSEVTPKCEDCQSLVKPDIVFFGESLPARFFSCMQSDFLKVDLLLVMGTSLQVQPFASLISKAPLSTPRLLINKEKAGQSDPFLGMIMGLGGGMDFDSKKAYRDVAWLGECDQGCLALAELLGWKKELEDLVRREHASIDAQSGAGVPNPSTSASPKKSPPPAKDEARTTEREKPQ",kcat/Km,[1],1250 M⁻¹ s⁻¹
same,kcat/Km,[2],3530 M⁻¹ s⁻¹
same,kcat/Km,[3],129 M⁻¹ s⁻¹
same,kcat/Km,[4],3.2 M⁻¹ s⁻¹
same,kcat/Km,[5],289 M⁻¹ s⁻¹
same,kcat/Km,[6],3.5 M⁻¹ s⁻¹
same,kcat,[7],20.6 10^-3/s
same,kcat,[8],4.25 10^-3/s
same,kcat,[9],13.6 10^-3/s
same,kcat,[10],0.054 10^-3/s
same,kcat,[11],12 10^-3/s
same,kcat,[12],0.98 10^-3/s
same,Km,[13],16.5 µM
same,Km,[14],1.2 µM
same,Km,[15],106 µM
same,Km,[16],1.7 µM
same,Km,[17],41.6 µM
same,Km,[18],274 µM
same,Vmax,[19],61.9 nM/min
same,Vmax,[20],25.5 nM/min
same,Vmax,[21],81.9 nM/min
same,Vmax,[22],1.63 nM/min
same,Vmax,[23],36.1 nM/min
same,Vmax,[24],26.3 nM/min
